From the supplement of paper PMC9170038

Tests used:
MS2 coat protein [1] = assay: apparent KD of MS2 coat protein, switch ON state; designed switch direction (-1 OFF switch, 1 ON switch): 1; higher = weaker reporter binding; settings: FMN input: 0 or 200 uM; Eterna round: R93 (includes R88 designs)
Method in brief: (§1)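 Designed RNA switches, transcribed on-chip from Illumina sequencing clusters, were titrated with SNAP-549-labelled MS2 coat protein from 0.7 or 1.5 nM to 3 µM in twofold steps. The solution was 100 mM Tris-HCl pH 7.5, 80 mM KCl, 4 mM MgCl2, with constant ligand or without it. Apparent KD is the median over each design's normalised cluster binding-curve fits.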

MS2 coat protein [2] = assay: apparent KD of MS2 coat protein, switch OFF state (with FMN for OFF switches, without FMN for ON switches); designed switch direction (-1 OFF switch, 1 ON switch): 1; higher = weaker reporter binding; settings: FMN input: 0 or 200 uM; Eterna round: R93 (includes R88 designs)
Method in brief: as §1

Sequence	apparent KD of MS2 coat protein (MS2 coat protein [1])	apparent KD of MS2 coat protein (MS2 coat protein [2])
AAAUAAAUAAAAAAGGAUAUAAAAAAGUACACAUGAGGAUCACCCAUGUGUACACAUGGGUGAUCCUAGAAGGAAAAAUAAAAAA [SS2: 91 No MS2]	117 nM	73.3 nM
AAUACACAUGAGGAUCACCCAUGUAGAAAGAAGUCAGGAUAUCCGAUCCACAUGUGAUAAGGAGAAGGGACAAUAA [SS 1 Tesla 8]	19.6 nM	95.4 nM
AGAAAUAAAACACAGGAUAUCCAAAAUAAAACAUGAGGAUCACCCAUGUAAAGAAAAGAAAAAUGGGAGAAGGGUGAAAAUAAGA [Mat - Same State 2 - JL mod - D19]	19.4 nM	69.7 nM
AAAAAACAUGAGGAUCACCCAUGUAGAAAUAUGGGAGGAUAUGGAAACACGAAAGUGAAACCAGAAGGCUCAAAAG [77%, Mat - Mod of Eli, 8]	26.6 nM	69.5 nM
CGAAAGGAGAGAGAGGAUAUCCAAAGGAAAACAUGAGGAUCACCCAUGUAGAAGGUAGGAGAUUGGGAGAAGGCUCAAGAGAGAU [salish99-ss2-147]	32.1 nM	34.3 nM
AAAUAAAUGACUGAGGAUAUAUCGAUGAGUACAUGAGGAUCACCCAUGUGUUAAUAAAAAGGGUGGUAGAAGGUAGUCAACAAAC [Mod 15 of Pariah 4 by Hyphema in Round 1]	112 nM	51.2 nM
AAAAACGUGGCGUAGGAUAUACUAAUAUUCACAUGAGGAUCACCCAUGUUCAUAUAUAUGAACGAGUAGAAGGACGACGAAAAAA [Mat - Same state - Malcolm Mod - D106]	29.5 nM	107 nM
AAAUAAAUGACUCAGGAUAUAUCAUAGGGUACAUGAGGAUCACCCAUGUUUUAAUAACAUGUUUGGUAGAAGGGAGUCAAUAAAU [LROPPY Same State 2 - v07_deltaG=1.69]	85.1 nM	133 nM
UAUCCGGCAGUGUAGGAUAUGUUGUAGUCAACAUGAGGAUCACCCAUGUGGAUUAUAUAAGAUUCACAGAAGGGCACUGCAUUGC [Geiner]	87.8 nM	74.1 nM
UGGAAACAUGAGGAUCACCCAUGUAAAAGGUGGUUAGGAUAUGCAAAACGGAAAACGAAAGCAGAAGGGACAAAAA [Inspired by JR and Meechl]	130 nM	320 nM
GAAAAACAUGAGGAUCACCCAUGUGUAAAUAUGGGAGGAUAUACAAAGACGUAAGUCAAAGUAGAAGGCCUAAAAG [Mat - Same State 1 - Eli mod - D12]	29.9 nM	95.1 nM
AUAAAACAUGAGGAUCACCCAUGUAGAAAUAUGGGAGGAUAUACUAGAUCGAAAGAUCUAGUAGAAGGCCUUUAUA [JL Mod of Eli 6]	19.9 nM	45.9 nM
GAGAUACAUGAGGAUCACCCAUGUUGAUACAUGGGAGGAUAUACAAGGUCGAAAGAUAAGGUAGAAGGCCUAAAAG [LROPPY Same State 1 - v04_deltaG=3.5]	47.1 nM	15.7 nM
AAAAAAAAAAGUGAGGAUAUGGGAAAAUUAACAUGAGGAUCACCCAUGUGAUAAAAAAAAAAAAACCAGAAGGUACAAAAAAAAAA [Same 2]	26.1 nM	35 nM
AAUAAACAUGAGGAUCACCCAUGUAGAAAUAUGGGAGGAUAUACAAAGACGAAAGUCAAAGUAGAAGGCCUAAUAA [Mat - Same State 1 - Mod - D153]	18 nM	58.5 nM
CCCAAUGCAACGAAGGAUAUCCGUCAUGCUACAUGAGGAUCACCCAUGUACUGGCAGCGCAAGGCGGAGAAGGUCGGGUGCUGUG [Leusesbe]	12 nM	12.6 nM
AAAUAAAUGACUAAGGAUAUAUCAUAAGAAACAUGAGGAUCACCCAUGUAAUAAUAAAAAGGGUGAUAGAAGGUAGUCAACAAAC [74%, More Paria 4]	19.8 nM	114 nM
AGACAUAAAAGAGAGGAUAUCCAAAAGAAAACAUGAGGAUCACCCAUGUGAAAGAAAAUAAAAUGGGAGAAGGCUCACAUACAGA [Topaz 36]	14.1 nM	27.4 nM
AGGAAACAUGAGGAUCACCCAUGUAAAAAAUGGGUAGGAUAUGCGAAAAGAAAAAGAAAAGCAGAAGGGCCAAGAA [62%, Something completely different, 3]	46 nM	444 nM

Sequence	apparent KD of MS2 coat protein (MS2 coat protein [1])	apparent KD of MS2 coat protein (MS2 coat protein [2])
AGAAAUAAAAGAGAGGAUAUGCAAAAGAUAACAUGAGGAUCACCCAUGUAAAAGAAAAUAAAUGGGUAGAAGGCUCAAAAUAAGA [Jieux modified]	86.4 nM	64.9 nM
GACGAACAUGAGGAUCACCCAUGUAAAAACGUACAAGGAUAUGUGUGGAAACCGUACUAUACAGAAGGUGUCUGUC [SS1 - 96]	37.3 nM	38.6 nM
AAUAUACAUGAGGAUCACCCAUGUUUUAAUAACUCAGGAUAUACGGGUGAAAACAGCAUAGUAGAAGGGAGAAAAA [SameState1 Malc#2]	44 nM	113 nM
AAAAAACAUGAGGAUCACCCAUGUAAUACAACAUCAGGAUAUUGAUUUUACUAUGUAUUGCAAGAAGGGAUGAAAA [Same State 1.3a (Same State 1 - Omei 2 )]	71.2 nM	45.2 nM
GAGAGGAAGAGAGAGGAUAUCCAAAGGAAAACAUGAGGAUCACCCAUGUAAAAGGUAGGAAAUUGGGAGAAGGCUCAAGAGAGAG [salish99-ss2-063]	29.1 nM	29.6 nM
AAUAUACAUGAGGAUCACCCAUGUUUUAAUAGCUGAGGAUAUACGGGUGAAAACAGCAUAGUAGAAGGCGGGUGUA [SameState1 Malc#8]	99.6 nM	115 nM
AUAAAACAUGAGGAUCACCCAUGUAGAAAUAUGGGAGGAUAUACUAGAUCGAAAGAUCUAGUAGAAGGCCUUUAAG [JL Mod of Eli 4]	29.6 nM	49.9 nM
GAGAGACAUGAGGAUCACCCAUGUAGGAUUAUGGGAGGAUAUACAAAGACGAGAGUCAGAGUAGAAGGCCUAGGAA [salish99-ss1-137(!)]	24.2 nM	74.4 nM
AAAUAAAUGACUCAGGAUAUAUCAGAGAAAACAUGAGGAUCACCCAUGUAAUAAUAACAUGUGUGGUAGAAGGGAGUCAAUAAAU [LROPPY Same State 2 - v03_deltaG=2.1]	13.5 nM	49.3 nM
AAAAAAUAAAAAAAGGAUAUAAUGCUACAGACAUGAGGAUCACCCAUGUAGGUAGCAAAAAUAAAAAAGAAGGAAAAAUAAAAAA [SS2: MS2 31]	11.4 nM	13.1 nM
UAGCAGUGCGGGUAGGAUAUGUAGGGUGGUACAUGAGGAUCACCCAUGUAUCCACCCUUCGACCGGCAGAAGGGCCUGUCACUGC [Edor]	17.9 nM	16.9 nM
AAACCACAUGAGGAUCACCCAUGUAAAAAUAUGGGAGGAUAUCGGAAUAAAAUAAAGAAACGAGAAGGCCUAAAAG [59%, Flamingo, 4]	69.3 nM	292 nM
AACUAACAUGAGGAUCACCCAUGUAAUCAAACAUGAGGAUAUAUAACACAUCAUCAACAGAUAGAAGGCAUAAAUA [JR_SS001_Sub1203]	80.4 nM	62.7 nM
GAAAAACAUGAGGAUCACCCAUGUAGAAAUAUGGGAGGAUAUACAAAGACGAAAGUCAAAGUAGAAGGCCUAAAGA [Mat - Same State 1 - Eli mod - 34]	15.5 nM	91.1 nM
AACAUACAUGAGGAUCACCCAUGUUCCGGCAGGACAGGAUAUACAUCGAAAGUGUUAUAAGUAGAAGGGUCAUAAA [JR_SS001_Sub012]	56.7 nM	66.5 nM
AUAUAUAUAAGGAAGGAUAUCUUAGAAAAAACAUGAGGAUCACCCAUGUAAAUAAAGAAUAAAUGGGAGAAGGUCCAUAUAUAUA [77%, More Tesla, 10]	15.1 nM	109 nM
AGAAUAAAAAGACAGGAUAUCCAAAAAAAAACAUGAGGAUCACCCAUGUAAAAAAAAUAAAAAUGGGAGAAGGGUCAAAAUAAGA [Mat - Same State 2 - JL mod - D64]	19.9 nM	35.9 nM
AUAAAACAUGAGGAUCACCCAUGUAGAAAUAUGGGAGGAUAUACGAGGACGAAAGUCAAAGUAGAAGGCCUAAAAG [Mat - Same State 1 - Meechl mod - D120]	22.7 nM	40.6 nM
